Data taken from the Human Domainome abundance scans (Beltran et al. 2025).
± gives the uncertainty stated by the source.

B1: Zinc finger homeobox protein 3, residues 2244 to 2299; numbered along this chain, Q15911 (parent)
chain: SSRTRFTDYQLRVLQDFFDANAYPKDDEFEQLSNLLNLPTRVIVVWFQNARQKARK

Variants of: B1
Test: abundance fitness (aPCA) (normalised: wild type 0, dead -1); higher = more abundant; growth selection in yeast, the domain comes from the species named
Conditions: Homo sapiens

Row | Variant | abundance fitness
1 | R5Y | 0.344 ± 0.088
2 | R5H | 0.218 ± 0.12
3 | R5Q | 0.092 ± 0.11
4 | R5T | 0.274 ± 0.084
5 | R5V | 0.362 ± 0.069
6 | R5L | 0.197 ± 0.072
7 | I43D | -0.772 ± 0.18
8 | I43C | -0.36 ± 0.17
9 | I43T | -0.396 ± 0.12
10 | I43G | -0.637 ± 0.11
11 | I43S | -0.845 ± 0.13
12 | I43V | -0.056 ± 0.1
13 | I43F | -0.792 ± 0.24
14 | I43M | -0.439 ± 0.14
15 | I43K | -0.744 ± 0.26
16 | I43A | -0.56 ± 0.11
17 | L11I | 0.055 ± 0.17
18 | L11G | -0.171 ± 0.09
19 | L11T | 0.172 ± 0.15
20 | L11W | -0.361 ± 0.11
21 | L11A | -0.181 ± 0.084
22 | L11Y | -0.404 ± 0.2
23 | L11R | -0.141 ± 0.09
24 | R3W | 0.094 ± 0.11

Row | Variant | abundance fitness
25 | R3L | 0.439 ± 0.095
26 | R3P | 0.17 ± 0.13
27 | R3N | 0.43 ± 0.17
28 | R3T | 0.4 ± 0.13
29 | R3E | 0.038 ± 0.11
30 | R3G | 0.281 ± 0.068
31 | R3V | 0.392 ± 0.089
32 | L36G | -0.929 ± 0.12
33 | L36Y | -0.86 ± 0.35
34 | L36E | -0.892 ± 0.18
35 | L36D | -0.908 ± 0.28
36 | L36R | -0.748 ± 0.11
37 | L36T | 0.013 ± 0.13
38 | K53S | 0.062 ± 0.074
39 | K53A | 0.032 ± 0.1
40 | K53I | -0.019 ± 0.088
41 | K53G | -0.005 ± 0.11
42 | K53P | -0.237 ± 0.082
43 | K53Y | -0.12 ± 0.091
44 | K53N | 0.138 ± 0.09
45 | P24G | -1.24 ± 0.28
46 | P24S | -0.734 ± 0.27
47 | P24R | -0.633 ± 0.12
48 | P24T | -0.856 ± 0.35

Row | Variant | abundance fitness
49 | P24H | -0.927 ± 0.43
50 | D26M | 0.018 ± 0.2
51 | D26V | -0.055 ± 0.12
52 | D26C | -0.506 ± 0.2
53 | D26S | -0.219 ± 0.12
54 | D26F | -0.332 ± 0.22
55 | D26L | -0.307 ± 0.11
56 | D8N | -0.237 ± 0.15
57 | D8Q | -0.035 ± 0.17
58 | D8T | -0.158 ± 0.1
59 | D8R | -0.173 ± 0.099
60 | D8P | -0.235 ± 0.13
61 | D8C | -0.022 ± 0.17
62 | D8E | -0.138 ± 0.1
63 | D8F | -0.591 ± 0.24
64 | D8W | -0.401 ± 0.14
65 | D19P | -0.686 ± 0.5
66 | D19A | -0.024 ± 0.22
67 | D19R | -0.012 ± 0.14
68 | L32G | -0.842 ± 0.083
69 | L32P | -1.02 ± 0.32
70 | L32H | -0.878 ± 0.24
71 | L32I | -0.17 ± 0.27
72 | N37A | -0.096 ± 0.12

Row | Variant | abundance fitness
73 | N37V | -0.117 ± 0.086
74 | N37D | -0.032 ± 0.13
75 | N37K | -0.009 ± 0.14
76 | N37G | -0.046 ± 0.076
77 | N37S | -0.064 ± 0.096
78 | T4W | -0.656 ± 0.11
79 | T4K | -0.661 ± 0.15
80 | T4E | -0.357 ± 0.15
81 | T4H | -0.072 ± 0.19
82 | T4D | 0.117 ± 0.21
83 | T4C | -0.632 ± 0.17
84 | Y9I | -0.383 ± 0.22
85 | Y9N | -0.097 ± 0.16
86 | Y9S | 0.053 ± 0.094
87 | Y9T | -0.135 ± 0.15
88 | Y9W | -0.217 ± 0.099
89 | Y9E | -0.007 ± 0.11
90 | Y9G | -0.063 ± 0.078
91 | E28K | -0.422 ± 0.13
92 | E28G | -0.488 ± 0.1
93 | E28C | -0.539 ± 0.2
94 | E28Y | -0.785 ± 0.37
95 | E28D | 0.2 ± 0.22
96 | E28T | -0.236 ± 0.13

Row | Variant | abundance fitness
97 | D16Y | -0.797 ± 0.24
98 | D16W | -0.714 ± 0.12
99 | D16V | -0.344 ± 0.11
100 | D16Q | -0.035 ± 0.15
101 | D16T | -0.114 ± 0.16
102 | V42N | 0.003 ± 0.18
103 | V42E | 0.174 ± 0.11
104 | V42T | 0.186 ± 0.15
105 | V42D | 0.055 ± 0.19
106 | V42A | -0.045 ± 0.11
107 | V42Q | -0.028 ± 0.15
108 | V42I | -0.022 ± 0.33
109 | N21K | 0.166 ± 0.14
110 | A50G | -0.298 ± 0.081
111 | A50C | -0.047 ± 0.093
112 | A50R | -0.061 ± 0.079
113 | A50I | -0.241 ± 0.11
114 | A50E | -0.095 ± 0.14
115 | A50P | -1.01 ± 0.11
116 | A50D | -1.01 ± 0.17
117 | F47S | -0.75 ± 0.084
118 | F47P | -0.89 ± 0.12
119 | F47E | -0.762 ± 0.2
120 | F47C | -0.728 ± 0.11

Row | Variant | abundance fitness
121 | F47R | -0.941 ± 0.1
122 | P39W | -1.08 ± 0.23
123 | P39S | 0.035 ± 0.073
124 | P39R | -0.258 ± 0.082
125 | P39E | -0.06 ± 0.15
126 | P39Q | -0.028 ± 0.11
127 | Q10A | -0.649 ± 0.092
128 | Q10T | -0.714 ± 0.14
129 | Q10D | -0.631 ± 0.16
130 | Q10G | -0.863 ± 0.08
131 | Q10W | -0.964 ± 0.13
132 | Q10M | -0.216 ± 0.12
133 | Q10E | -0.59 ± 0.12
134 | S2I | 0.393 ± 0.2
135 | S2A | -0.353 ± 0.12
136 | S2M | 0.321 ± 0.18
137 | S2D | 0.21 ± 0.11
138 | S2C | -0.118 ± 0.17
139 | S2W | -0.255 ± 0.14
140 | S2Y | 0.097 ± 0.15
141 | S2F | -0.214 ± 0.17
142 | Q31D | -0.193 ± 0.39
143 | Q31I | 0.117 ± 0.29
144 | Q31S | -0.082 ± 0.11

Row | Variant | abundance fitness
145 | Q31N | 0.366 ± 0.27
146 | Q31R | -0.007 ± 0.087
147 | Q31E | -0.066 ± 0.13
148 | Q31T | 0.035 ± 0.13
149 | Q31A | -0.192 ± 0.12
150 | K56I | -0.302 ± 0.16
151 | K56F | -0.089 ± 0.24
152 | K56G | -0.029 ± 0.23
153 | K56H | -0.053 ± 0.12
154 | V13Y | 0.003 ± 0.19
155 | V13I | -0.359 ± 0.24
156 | V13P | -0.773 ± 0.13
157 | V13H | -0.178 ± 0.17
158 | V13D | -0.692 ± 0.19
159 | V13R | -0.323 ± 0.088
160 | V13E | -0.237 ± 0.12
161 | V13L | -0.093 ± 0.073
162 | V13A | -0.018 ± 0.099
163 | V13W | -0.794 ± 0.14
164 | V13N | -0.244 ± 0.18
165 | D27S | -0.077 ± 0.081
166 | D27L | -0.17 ± 0.074
167 | D27I | -0.17 ± 0.15
